According to PMC3001090:

Target: T1, Rv1495 (MazF homolog) (Mycobacterium tuberculosis, UniProt P9WII5 1-105)
T1 sequence: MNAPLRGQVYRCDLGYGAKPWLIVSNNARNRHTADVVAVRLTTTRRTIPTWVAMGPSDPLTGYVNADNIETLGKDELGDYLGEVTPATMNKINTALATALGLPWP
Assay: EMSA

B1: 32-mer TopA substrate oligonucleotide (ssDNA)
DNA: CAGTGAGCGAGCTTCCGCTTGACATCCCAATA
**Q.** Does B1 bind?
**A.** Result: no binding
